Results: the Immune Epitope Database (IEDB)
Values belong to the sequence of their own block, whether it stands above or below them.

Key:
HLA-B*15:02 = test: IEDB peptide-MHC binding, purified MHC/direct/fluorescence; filed as Kd, often an IC50 or EC50 that approximates it; ≥ and ≤ were set here for values at or beyond the usual limits of such assays; conditions: source organism: dengue virus type 3
HLA-B*46:01 = test: as above
HLA-A*01:01 [1] = test: as above; conditions: source organism: Influenza A virus (A/tern/Australia/1/04(H2N5))
HLA-B*40:01 = test: as above
HLA-A*02:11 = test: as above
HLA-A*02:01 [2] = test: as above
HLA-B*07:02 [3] = test: as above
HLA-B*15:01 = test: as above; conditions: source organism: Influenza A virus (A/tern/Australia/1/04(H2N5))
HLA-B*44:02 = test: as above; conditions: source organism: Influenza A virus (A/tern/Australia/1/04(H2N5))
HLA-A*02:16 = test: as above; conditions: source organism: Influenza A virus(A/swine/Henan/2/2004(H9N2))
HLA-B*58:01 [4] = test: as above
HLA-A*02:12 = test: as above
HLA-A*11:01 [5] = test: as above; conditions: source organism: Influenza A virus (A/tern/Australia/1/04(H2N5))
HLA-B*08:01 [6] = test: as above; conditions: source organism: Influenza A virus (A/tern/Australia/1/04(H2N5))
HLA-B*18:01 [7] = test: as above; conditions: source organism: Influenza A virus (A/tern/Australia/1/04(H2N5))
HLA-A*03:01 [8] = test: as above; conditions: source organism: Influenza A virus (A/tern/Australia/1/04(H2N5))
HLA-A*24:02 [9] = test: as above; conditions: source organism: Influenza A virus (A/tern/Australia/1/04(H2N5))
HLA-A*02:06 = test: as above; conditions: source organism: Influenza A virus(A/swine/Henan/2/2004(H9N2))
HLA-A*02:03 = test: as above
HLA-B*27:05 = test: as above; conditions: source organism: Influenza A virus (A/tern/Australia/1/04(H2N5))
HLA-A*02:19 = test: as above
HLA-A*01:01 [10] = test: IEDB peptide-MHC binding, purified MHC/competitive/fluorescence; filed as Kd, often an IC50 or EC50 that approximates it; ≥ and ≤ were set here for values at or beyond the usual limits of such assays; conditions: source organism: West Nile virus
HLA-B*51:01 [11] = test: IEDB peptide-MHC binding, purified MHC/direct/fluorescence; filed as Kd, often an IC50 or EC50 that approximates it; ≥ and ≤ were set here for values at or beyond the usual limits of such assays; conditions: source organism: West Nile virus strain PTRoxo
HLA-A*25:01 [12] = test: as above; conditions: source organism: West Nile virus strain PTRoxo
HLA-A*80:01 = test: as above; conditions: source organism: West Nile virus
HLA-A*29:02 [13] = test: as above; conditions: source organism: West Nile virus strain PTRoxo
HLA-B*53:01 = test: IEDB peptide-MHC binding, purified MHC/competitive/fluorescence; ≥ and ≤ were set here for values at or beyond the usual limits of such assays; conditions: source organism: Pan troglodytes
HLA-A*01:01 [14] = test: as above; conditions: source organism: Pan troglodytes
HLA-B*14:02 = test: as above; conditions: source organism: Pan troglodytes
HLA-A*02:01 [15] = test: as above; conditions: source organism: Pan troglodytes
HLA-B*07:02 [16] = test: as above; conditions: source organism: Pan troglodytes
HLA-A*68:02 = test: as above; conditions: source organism: Pan troglodytes
HLA-B*51:01 [17] = test: as above; conditions: source organism: Pan troglodytes
HLA-B*40:02 = test: as above; conditions: source organism: Pan troglodytes
HLA-A*25:01 [18] = test: as above; conditions: source organism: Pan troglodytes
HLA-A*31:01 = test: as above; conditions: source organism: Pan troglodytes
HLA-B*58:01 [19] = test: as above; conditions: source organism: Pan troglodytes
HLA-B*35:01 = test: as above; conditions: source organism: Pan troglodytes
HLA-A*11:01 [20] = test: as above; conditions: source organism: Pan troglodytes
HLA-B*08:01 [21] = test: as above; conditions: source organism: Pan troglodytes
HLA-B*18:01 [22] = test: as above; conditions: source organism: Pan troglodytes
HLA-B*44:03 = test: as above; conditions: source organism: Pan troglodytes
HLA-A*03:01 [23] = test: as above; conditions: source organism: Pan troglodytes
HLA-A*29:02 [24] = test: as above; conditions: source organism: Pan troglodytes
HLA-B*37:01 = test: as above; conditions: source organism: Pan troglodytes
HLA-A*24:02 [25] = test: as above; conditions: source organism: Pan troglodytes
HLA-C*14:02 = test: IEDB peptide-MHC binding, purified MHC/direct/fluorescence; filed as Kd, often an IC50 or EC50 that approximates it; ≥ and ≤ were set here for values at or beyond the usual limits of such assays; conditions: source organism: Homo sapiens
[26] = source organism: Influenza A virus (A/tern/Australia/1/04(H2N5))
[27] = source organism: Influenza A virus(A/swine/Henan/2/2004(H9N2))
[28] = source organism: West Nile virus strain PTRoxo

Sequence: GMGEAAAIF
Kd (HLA-B*15:02): 0.158 µM | Kd (HLA-B*46:01; source organism: Dengue virus 1 Singapore/S275/1990): ≥ 20 µM

Sequence: LLTEVETYV
Kd (HLA-A*01:01 [1]): ≥ 20 µM | Kd (HLA-B*40:01; [26]): ≥ 20 µM | Kd (HLA-A*02:11; [27]): ≤ 0.001 µM | Kd (HLA-A*02:01 [2]; source organism: Influenza A virus (A/Puerto Rico/8/34/Mount Sinai(H1N1))): 0.012 µM | Kd (HLA-B*07:02 [3]; [26]): ≥ 20 µM | Kd (HLA-B*15:01): ≥ 20 µM | Kd (HLA-B*44:02): ≥ 20 µM | Kd (HLA-A*02:16): ≤ 0.001 µM | Kd (HLA-B*58:01 [4]; [26]): ≥ 20 µM | Kd (HLA-A*02:12; [27]): ≤ 0.001 µM | Kd (HLA-B*46:01; [26]): ≥ 20 µM | Kd (HLA-A*11:01 [5]): ≥ 20 µM | Kd (HLA-B*08:01 [6]): ≥ 20 µM | Kd (HLA-B*18:01 [7]): ≥ 20 µM | Kd (HLA-A*03:01 [8]): ≥ 20 µM | Kd (HLA-A*24:02 [9]): ≥ 20 µM | Kd (HLA-A*02:06): ≤ 0.001 µM | Kd (HLA-A*02:03; [27]): ≤ 0.001 µM | Kd (HLA-B*27:05): ≥ 20 µM | Kd (HLA-A*02:19; [27]): 0.002 µM

Sequence: MTRGLLGSY
Kd (HLA-A*01:01 [10]): 0.519 µM | Kd (HLA-B*40:01; [28]): ≥ 20 µM | Kd (HLA-A*02:11; [28]): ≥ 20 µM | Kd (HLA-A*02:01 [2]; [28]): ≥ 20 µM | Kd (HLA-B*07:02 [3]; [28]): ≥ 20 µM | Kd (HLA-B*51:01 [11]): ≥ 20 µM | Kd (HLA-A*25:01 [12]): 0.009 µM | Kd (HLA-B*58:01 [4]; [28]): ≥ 20 µM | Kd (HLA-A*80:01): 0.173 µM | Kd (HLA-A*02:12; [28]): ≥ 20 µM | Kd (HLA-A*29:02 [13]): 0.099 µM | Kd (HLA-A*02:03; [28]): ≥ 20 µM | Kd (HLA-A*02:19; [28]): ≥ 20 µM

IC50 (HLA-B*53:01): ≥ 20 µM | IC50 (HLA-A*01:01 [14]): ≥ 20 µM | IC50 (HLA-B*14:02): ≥ 20 µM | IC50 (HLA-A*02:01 [15]): ≥ 20 µM | IC50 (HLA-B*07:02 [16]): ≥ 20 µM | IC50 (HLA-A*68:02): ≥ 20 µM | IC50 (HLA-B*51:01 [17]): ≥ 20 µM | IC50 (HLA-B*40:02): ≥ 20 µM | IC50 (HLA-A*25:01 [18]): ≥ 20 µM | IC50 (HLA-A*31:01): ≥ 20 µM | IC50 (HLA-B*58:01 [19]): ≥ 20 µM | IC50 (HLA-B*35:01): 0.0907 µM | IC50 (HLA-A*11:01 [20]): ≥ 20 µM | IC50 (HLA-B*08:01 [21]): ≥ 20 µM | IC50 (HLA-B*18:01 [22]): ≥ 20 µM | IC50 (HLA-B*44:03): ≥ 20 µM | IC50 (HLA-A*03:01 [23]): ≥ 20 µM | IC50 (HLA-A*29:02 [24]): 0.252 µM | IC50 (HLA-B*37:01): ≥ 20 µM | IC50 (HLA-A*24:02 [25]): ≥ 20 µM | Kd (HLA-C*14:02): ≥ 20 µM
Sequence: RPPYSSYGY
